These results are taken from patent US20210072250A1.

Some results are limits rather than exact numbers.

Assay [1] concerns the target P1-Hpu. Kind of assay: SPR, Biacore T200, peptide captured, Fab flowed. Background: SPR reads the build-up and loss of mass on a sensor chip optically.
Assay [2] has as its target P2-Hpu. As to the kind of experiment: SPR, Biacore T200, peptide captured, Fab flowed.
For assay [3], the target named is P4-Hpu. Kind of assay: SPR, Biacore T200, peptide captured, Fab flowed.
In assay [4] the target is P5-Hpu. As to the kind of experiment: SPR, Biacore T200, peptide captured, Fab flowed.
Assay [5] concerns the target P1-Hpu. As to the kind of experiment: SPR, ratio of KD values.
In assay [6] the target is P2-Hpu. As to the kind of experiment: SPR, ratio of KD values.
The target of assay [7] is P3-Hpu. Kind of assay: SPR, ratio of KD values.
The target in assay [8] is P4-Hpu. As to the kind of experiment: SPR, ratio of KD values.
Assay [9] has as its target P5-Hpu. As to the kind of experiment: SPR, ratio of KD values.
The target of assay [10] is P3-Hpu. As to the kind of experiment: SPR, Biacore T200, peptide captured, Fab flowed.
Assay [11] addresses P1-Hpu. As to the kind of experiment: SPR.
The target in assay [12] is P1-deoxy. As to the kind of experiment: SPR.
The target of assay [13] is P1-deoxy. As to the kind of experiment: SPR, ratio of KD values.
Assay [14] has as its target P2-deoxy. Kind of assay: SPR, ratio of KD values.
In assay [15] the target is P1-deoxy. As to the kind of experiment: SPR, Biacore T200, peptide captured, Fab flowed.
Assay [16] addresses P2-deoxy. Kind of assay: SPR, Biacore T200, peptide captured, Fab flowed.

B1: FabHpu24 (Fab)
heavy: QEQLKESGGRLVAPGTPLTLTCTVSGFDISDYAMIWVRQAPGKGLEWIGIIYGGSNKLAYAKWAKGRFTISRTSTTVDLKITSPTTEDTATYFCARGYGSMDGYDRLNLWGQGTLVTVSSGQPKGPSVFPLAPCCGDTPSSTVTLGCLVKGYLPEPVTVTWNSGTLTNGVRTFPSVRQSSGLYSLSSVVSVTSSSQPVTCNVAHPATNTKVDKTVAPSTCSKPT
light: AAVLTQTPSPVSAAVGGTVTISCQSSETVYRGDWLSWFQKKPGQPPKLLIYDASYLASGVSSRFSGSGSGTHFTLTISGVQCDDAATYYCLGGYYDDADDTFGGGTEVVVKGDPVAPTVLIFPPAADQVATGTVTIVCVANKYFPDVTVTWEVDGTTQTTGIENSKTPQNSADCTYNLSSTLTLTSTQYNSHKEYTCKVTQGTTSVVQSFNRGDC
Broadly, the Kd is the equilibrium constant for the complex coming apart. High values mean weaker binding, low ones tighter binding. With B1, the Kd in [1] was 192 nM; in [2], 157 nM; in [3], 541 nM; in assay [4], 96 nM.

B2: FabHpu24.B (Fab)
heavy: QEQLKESGGRLVAPGTPLTLTCTVSGFDISDYAMIWVRQAPGKGLEWIGIIYGVINDLAYAKWAKGRFTISRTSTTVDLKITSPTTEDTATYFCARGYGSMDGYDRLNLWGQGTLVTVSSGQPKGPSVFPLAPCCGDTPSSTVTLGCLVKGYLPEPVTVTWNSGTLTNGVRTFPSVRQSSGLYSLSSVVSVTSSSQPVTCNVAHPATNTKVDKTVAPSTCSKPT
light: AAVLTQTPSPVSAAVGGTVTISCRSRQRVYLGDWLSWFQKKPGQPPKLLIYDASFRGDGVSSRFSGSGSGTHFTLTISGVQCDDAATYYCLGGYYDDADDTFGGGTEVVVKGDPVAPTVLIFPPAADQVATGTVTIVCVANKYFPDVTVTWEVDGTTQTTGIENSKTPQNSADCTYNLSSTLTLTSTQYNSHKEYTCKVTQGTTSVVQSFNRGDC
With B2, the Fold improvement in KD over parent FabHpu24 is 32 fold in [5]; 12 fold in assay [6]; more than 5 fold in assay [7]; 17 fold in assay [8]; 13 fold in assay [9]. The Kd in assay [1] is 6 nM; in assay [2], 13 nM; in assay [10] it was 186 nM; in assay [3], 32 nM; in assay [4] it was 7 nM.

B3: FabHpu98.61 (Fab)
heavy: QSVEESGGRLVTPGTPLTLTCTVSACSLYHCTMNWVRQAPGKGLEWIGDIYTDGNTYYANWAKGRFTISKTSTTVDLKITSPTTEDTATYFCARDSWDASSYYGLDLWGQGTLVTVSSGQPKGPSVFPLAPCCGDTPSSTVTLGCLVKGYLPEPVTVTWNSGTLTNGVRTFPSVRQSSGLYSLSSVVSVTSSSQPVTCNVAHPATNTKVDKTVAPSTCSKPT
light: AIKMTQTPSSVSAAVGGTVTINCQASEDIKRYLAWYQQKPGQPPKLLIYAASKLASGVSSRFKGSGSGTEYTLTISGVQCDDAATYYCQQGYTSSNVNNAFGGGTEVVVKGDPVAPTVLIFPPAADQVATGTVTIVCVANKYFPDVTVTWEVDGTTQTTGIENSKTPQNSADCTYNLSSTLTLTSTQYNSHKEYTCKVTQGTTSVVQSFNRGDC
As to B3, the dissociation constant Kd in assay [11] amounted to 18 nM; in assay [12] it was 20 nM; in [1], 15 nM; in assay [15], 17 nM; in assay [2], 78 nM; in assay [16] it was 86 nM. Moreover, the Kd in assay [3] was 91 nM; in [4], 70 nM. In addition, the Fold improvement in KD over parent FabHpu98 was found to be 7.9 fold in assay [5]; 6.9 fold in assay [13]; 2.6 fold in assay [6]; 1.8 fold in [14]; 2.5 fold in [8]; 2.5 fold in assay [9].
